These results are taken from patent US9683217B2, “In vitro culture conditions for T-cell acute lymphoblastic leukemia/lymphoma” (THE UNIVERSITY OF MIAMI, priority 2013, dated 2017).

One assay addresses IGF1R (Homo sapiens, UniProt P08069). As to conditions: read-out: Kd of insulin for IGF1R; cited from earlier work.
The subject of a further assay is human T-ALL lymphoblasts. Briefly: Cytokine/growth factor subtraction and IGF1R blockade, resazurin-reduction cell growth assay. Format: cell-based. To be noted: for importance of the supplemental cytokine for T-ALL growth: SCF, IGF-1, IL-2, IL-7 added alone or in combination, FIG. 3. On the procedure:
A resazurin-reduction cell growth assay was performed on (A-B) primary and (C) xenograft-expanded T-ALL. Cells were cultured and passaged as described in FIG. 1. Cytokines and growth factors were subtracted out of the complete media and cells were assayed for growth using a resazurin reduction assay. […] Significance: * p<0.05, ** p<0.01, and *** p<0.001.
Cell Titer Blue (Promega) was added to a co-culture, 5 μl/well for a 12-well plate and 1 μl/well for a 96-well plate, and allowed to incubate for 2-6 hours depending on the number and type of cells present in the well. Cultures were then analyzed using a Tecan GENios Flourometric plate reader. The plate reader was set to read from the bottom at 535 nm excitation and 590 nm emission wavelengths, at optimal gain with an integration time of 80 μs and a lag time of 0 μs. The plate was orbitally shaken in the machine for 5 sec prior to reading.
Studies were also conducted with human T-ALL primary cells (FIGS. 3A-3B) and human T-ALL cells that were previously expanded in immunodeficient NSG mice (FIG. 3C).
Background: Alamar Blue is a resazurin reagent that responds to reducing activity.

For the molecule “insulin: ligand for a tyrosine kinase transmembrane receptor (CD220); component of the basal medium”, the Kd (commonly the constant that tells how readily two partners part at equilibrium) in the assay with IGF1R was 200 to 400 nM.
As for “IGF-1: ligand for a tyrosine kinase transmembrane receptor (CD221); recombinant supplement”, the “importance of the supplemental cytokine for T-ALL growth” value in the assay on human T-ALL lymphoblasts was “may be dispensable”.

B1: CP-751,871: an IGF-1 receptor (IGF1R) blocking antibody, specific for human IGF1R (antibody, chains of the INN, looked up)
heavy: EVQLLESGGGLVQPGGSLRLSCTASGFTFSSYAMNWVRQAPGKGLEWVSAISGSGGTTFYADSVKGRFTISRDNSRTTLYLQMNSLRAEDTAVYYCAKDLGWSDSYYYYYGMDVWGQGTTVTVSSASTKGPSVFPLAPCSRSTSESTAALGCLVKDYFPEPVTVSWNSGALTSGVHTFPAVLQSSGLYSLSSVVTVPSSNFGTQTYTCNVDHKPSNTKVDKTVERKCCVECPPCPAPPVAGPSVFLFPPKPKDTLMISRTPEVTCVVVDVSHEDPEVQFNWYVDGVEVHNAKTKPREEQFNSTFRVVSVLTVVHQDWLNGKEYKCKVSNKGLPAPIEKTISKTKGQPREPQVYTLPPSREEMTKNQVSLTCLVKGFYPSDIAVEWESNGQPENNYKTTPPMLDSDGSFFLYSKLTVDKSRWQQGNVFSCSVMHEALHNHYTQKSLSLSPG
light: DIQMTQFPSSLSASVGDRVTITCRASQGIRNDLGWYQQKPGKAPKRLIYAASRLHRGVPSRFSGSGSGTEFTLTISSLQPEDFATYYCLQHNSYPCSFGQGTKLEIKRTVAAPSVFIFPPSDEQLKSGTASVVCLLNNFYPREAKVQWKVDNALQSGNSQESVTEQDSKDSTYSLSSTLTLSKADYEKHKVYACEVTHQGLSSPVTKSFNRGEC
On to B1, for which the “effect of IGF1R blocking antibody on cell growth” value in the assay with human T-ALL lymphoblasts (T-ALL on mouse MS5-DL1 feeders) was “significantly impaired cell growth”.

B2: IL-7: ligand for the IL-7 receptor; recombinant cytokine supplement (protein, UniProt P13232 26-177, looked up)
Interleukin-7: DCDIEGKDGKQYESVLMVSIDQLLDSMKEIGSNCLNNEFNFFKRHICDANKEGMFLFRAARKLRQFLKMNSTGDFDLHLLKVSEGTTILLNCTGQVKGRKPAALGEAQPTKSLEENKSLKEQKKLNDLCFLKRLLQEIKTCWNKILMGTKEH
Take B2: the “importance of the supplemental cytokine for T-ALL growth” value with human T-ALL lymphoblasts is given as “the most important factor”.
